Results: the supplement of paper PMC7877785
± gives the uncertainty stated by the source.

Assay: self-splicing fitness, log relative to wild type (ln ratio); higher = more splicing; Tetrahymena group I intron in knt gene, E. coli kanamycin selection, DiMSum; sequences stand for … in CUCUCU…GGAGGGAAAAGUUAUCAGGCAUGCACCUGGUAGCUAGUCUUUAAACCAAUAGAUUGCAUCGGUUUAAAAGGCAAGACCGUCAAAUUGCGGGAAAGGGGUCAACAGCCGUUCAGUACCAAGUCUCAGGGGAAACUUUGAGAUGGCCUUGCAAAGGGUAUGGUAAUAAGCUGACGGACAUGGUCCUAACCACGCAGCCAAGUCCUAAGUCAACAGAUCUUCUGUUGAUAUGGAUGCAGUUCACAGACUAAAUGUCGGUCGGGGAAGAUGUAUUCUUCUCAUAAGAUAUAGUCGGACCUCUCCUUAAUGGGAGCUAGCGGAUGAAGUGAUGCAACACUGGAGCCGCUGGGAACUAAUUUGUAUGCGAAAGUAUAUUGAUUAGUUUUGGAGUACUCGUGGUCG
Procedure, shortened: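 A randomised library covering all eight P1ex-region intron nucleotides was built with the intron in the knt kanamycin-resistance gene on pET-22b(+) and held in E. coli BL21(DE3). Cells were grown overnight at 37°C or 30°C on LB agar, with or without 25 μg/mL kanamycin, plus 100 μg/mL carbenicillin, 50 μM IPTG and 0.2% rhamnose, and pooled colonies were amplicon-sequenced on an Illumina HiSeq 2500. DiMSum fitness is the error-weighted combination of wild-type-normalised replicate fold changes, kanamycin versus none.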

Sequence	self-splicing fitness (ln) (30 °C)	self-splicing fitness (ln) (37 °C)
CCAAAGCAAUAUUACGGGCG	-1.31 ± 0.065	-0.301 ± 0.094
CCAAAGCAAUAUUACGGGGC	-3.09 ± 0.19	-2.93 ± 0.27
CCAAAGCAAUAUUACGGGGG	-3.14 ± 0.18	-1.5 ± 0.16
CCAAAGCAAUAUUACGGUCC	-4.23 ± 0.46	-2.13 ± 0.3
CCAAAGCAAUAUUACGGUGG	-4.1 ± 0.19	-1.76 ± 0.16
CCAAAGCAAUAUUACGUACA	-3.73 ± 0.23	-3.32 ± 0.28
CCAAAGCAAUAUUACGUGAA	-4.04 ± 0.17	-3.18 ± 0.27
CCAAAGCAAUAUUACGUGGU	-3.39 ± 0.098	-3.29 ± 0.14
CCAAAGCAAUAUUACGUUAU	-3.2 ± 0.13	-2.68 ± 0.15
CCACAGCAAUAUUACGAAAA	-3.8 ± 0.27	-2.58 ± 0.22
CCACAGCAAUAUUACGAGAC	-3.7 ± 0.2	-3.01 ± 0.23
CCACAGCAAUAUUACGAGUG	-1.31 ± 0.057	0.0708 ± 0.062
CCACAGCAAUAUUACGAUAA	-3.11 ± 0.25	-2.75 ± 0.32
CCACAGCAAUAUUACGCAAG	-1.34 ± 0.064	-0.406 ± 0.072
CCACAGCAAUAUUACGCGAG	-1.27 ± 0.076	-0.902 ± 0.083
CCACAGCAAUAUUACGCGCU	-4.48 ± 0.23	-2.26 ± 0.15
CCACAGCAAUAUUACGCUAU	-3.61 ± 0.26	-3.12 ± 0.25
CCACAGCAAUAUUACGGAAC	-3.75 ± 0.24	-2.47 ± 0.23
CCACAGCAAUAUUACGGAUA	-2.27 ± 0.12	-2.68 ± 0.18
CCACAGCAAUAUUACGGGAA	-3.4 ± 0.15	-3.01 ± 0.2
CCACAGCAAUAUUACGGGAC	-3.78 ± 0.33	-2.26 ± 0.2
CCACAGCAAUAUUACGGGGC	-3.95 ± 0.14	-2.43 ± 0.16
CCACAGCAAUAUUACGUAAG	-0.731 ± 0.038	0.388 ± 0.061
CCACAGCAAUAUUACGUAUC	-2.59 ± 0.16	-2 ± 0.22

Sequence	self-splicing fitness (ln) (30 °C)	self-splicing fitness (ln) (37 °C)
CCACAGCAAUAUUACGUCGG	-3.14 ± 0.12	-1.95 ± 0.18
CCACAGCAAUAUUACGUGGA	-3.7 ± 0.16	-3.16 ± 0.16
CCACAGCAAUAUUACGUGUG	-3.61 ± 0.095	-2.36 ± 0.092
CCACAGCAAUAUUACGUUAU	-4.08 ± 0.15	-2.66 ± 0.16
CCAGAGCAAUAUUACGAAAG	-2.45 ± 0.2	-1.47 ± 0.17
CCAGAGCAAUAUUACGAACU	-3.13 ± 0.35	-1.86 ± 0.35
CCAGAGCAAUAUUACGACGC	-4.17 ± 0.34	-2.11 ± 0.28
CCAGAGCAAUAUUACGAGCA	-5.29 ± 0.41	-2.32 ± 0.19
CCAGAGCAAUAUUACGCCGU	-4.04 ± 0.48	
CCAGAGCAAUAUUACGCGAU		-2.21 ± 0.33
CCAGAGCAAUAUUACGGCAA	-2.25 ± 0.38	-2.28 ± 0.3
CCAGAGCAAUAUUACGGUAA	-2.75 ± 0.22	-2.33 ± 0.26
CCAGAGCAAUAUUACGGUGA	-3.55 ± 0.2	-2.6 ± 0.23
CCAGAGCAAUAUUACGUCAG	-2.58 ± 0.12	-1.6 ± 0.15
CCAUAGCAAUAUUACGAAAA	-3.02 ± 0.29	
CCAUAGCAAUAUUACGAAUG	-2.11 ± 0.08	-1.15 ± 0.095
CCAUAGCAAUAUUACGACAA	-3.06 ± 0.41	-2.94 ± 0.35
CCAUAGCAAUAUUACGAGCC	-4.57 ± 0.45	-2.16 ± 0.36
CCAUAGCAAUAUUACGAUCC	-3.2 ± 0.35	-1.43 ± 0.41
CCAUAGCAAUAUUACGAUUC	-3.64 ± 0.25	-2.89 ± 0.41
CCAUAGCAAUAUUACGCAUC	-3.39 ± 0.27	-2.31 ± 0.3
CCAUAGCAAUAUUACGCCAA	-2.76 ± 0.43	-1.58 ± 0.25
CCAUAGCAAUAUUACGCGAU	-2.56 ± 0.27	-2.91 ± 0.43
CCAUAGCAAUAUUACGCGGC	-4.01 ± 0.35	-2.87 ± 0.43
